According to article PMC7611467 (Journal of molecular biology, 2020):

B1: W37only single-Trp mutant of MgtE (natural protein, Thermus thermophilus, UniProt Q5SMG8 1-450, looked up)
chain: MEEKLAVSLQEALQEGDTRALREVLEEIHPQDLLALWDELKGEHRYVVLTLLPKAKAAEVLSHLSPEEQAEYLKTLPPFRLREILEELSLDDLADALQAVRKEDPAYFQRLKDLLDPRTRAEVEALARYEEDEAGGLMTPEYVAVREGMTVEEVLRFLRRAAPDAETIYYIYVVDEKGRLKGVLSLRDLIVADPRTRVAEIMNPKVVYVRTDTDQEEVARLMADYDFTVLPVVDEEGRLVGIVTVDDVLDVLEAEATEDIHKLGAVDVPDLVYSEAGPVALFLARVRFLVILILTGMVTSSILQGFESVLEAVTALAFYVPVLLGTGGNTGNQSATLIIRALATRDLDLRDFRRVFLKEMGVGLLLGLTLSFLLVGKVYFDGHPLLLPVVGVSLVLIVFFANLVGAMLPFLLRRLGVDPALVSNPLVATLSDVTGLLIYLSVARLLLEAV
B2: W380only single-Trp mutant of MgtE (natural protein, Thermus thermophilus, UniProt Q5SMG8 1-450, looked up)
chain: MEEKLAVSLQEALQEGDTRALREVLEEIHPQDLLALFDELKGEHRYVVLTLLPKAKAAEVLSHLSPEEQAEYLKTLPPFRLREILEELSLDDLADALQAVRKEDPAYFQRLKDLLDPRTRAEVEALARYEEDEAGGLMTPEYVAVREGMTVEEVLRFLRRAAPDAETIYYIYVVDEKGRLKGVLSLRDLIVADPRTRVAEIMNPKVVYVRTDTDQEEVARLMADYDFTVLPVVDEEGRLVGIVTVDDVLDVLEAEATEDIHKLGAVDVPDLVYSEAGPVALFLARVRFLVILILTGMVTSSILQGFESVLEAVTALAFYVPVLLGTGGNTGNQSATLIIRALATRDLDLRDFRRVFLKEMGVGLLLGLTLSFLLVGKVYWDGHPLLLPVVGVSLVLIVFFANLVGAMLPFLLRRLGVDPALVSNPLVATLSDVTGLLIYLSVARLLLEAV
B3: W282only single-Trp mutant of MgtE (natural protein, Thermus thermophilus, UniProt Q5SMG8 1-450, looked up)
chain: MEEKLAVSLQEALQEGDTRALREVLEEIHPQDLLALFDELKGEHRYVVLTLLPKAKAAEVLSHLSPEEQAEYLKTLPPFRLREILEELSLDDLADALQAVRKEDPAYFQRLKDLLDPRTRAEVEALARYEEDEAGGLMTPEYVAVREGMTVEEVLRFLRRAAPDAETIYYIYVVDEKGRLKGVLSLRDLIVADPRTRVAEIMNPKVVYVRTDTDQEEVARLMADYDFTVLPVVDEEGRLVGIVTVDDVLDVLEAEATEDIHKLGAVDVPDLVYSEAGPVALWLARVRFLVILILTGMVTSSILQGFESVLEAVTALAFYVPVLLGTGGNTGNQSATLIIRALATRDLDLRDFRRVFLKEMGVGLLLGLTLSFLLVGKVYFDGHPLLLPVVGVSLVLIVFFANLVGAMLPFLLRRLGVDPALVSNPLVATLSDVTGLLIYLSVARLLLEAV
B4: W288only single-Trp mutant of MgtE (natural protein, Thermus thermophilus, UniProt Q5SMG8 1-450, looked up)
chain: MEEKLAVSLQEALQEGDTRALREVLEEIHPQDLLALFDELKGEHRYVVLTLLPKAKAAEVLSHLSPEEQAEYLKTLPPFRLREILEELSLDDLADALQAVRKEDPAYFQRLKDLLDPRTRAEVEALARYEEDEAGGLMTPEYVAVREGMTVEEVLRFLRRAAPDAETIYYIYVVDEKGRLKGVLSLRDLIVADPRTRVAEIMNPKVVYVRTDTDQEEVARLMADYDFTVLPVVDEEGRLVGIVTVDDVLDVLEAEATEDIHKLGAVDVPDLVYSEAGPVALFLARVRWLVILILTGMVTSSILQGFESVLEAVTALAFYVPVLLGTGGNTGNQSATLIIRALATRDLDLRDFRRVFLKEMGVGLLLGLTLSFLLVGKVYFDGHPLLLPVVGVSLVLIVFFANLVGAMLPFLLRRLGVDPALVSNPLVATLSDVTGLLIYLSVARLLLEAV
B5: W79only single-Trp mutant of MgtE (natural protein, Thermus thermophilus, UniProt Q5SMG8 1-450, looked up)
chain: MEEKLAVSLQEALQEGDTRALREVLEEIHPQDLLALFDELKGEHRYVVLTLLPKAKAAEVLSHLSPEEQAEYLKTLPPWRLREILEELSLDDLADALQAVRKEDPAYFQRLKDLLDPRTRAEVEALARYEEDEAGGLMTPEYVAVREGMTVEEVLRFLRRAAPDAETIYYIYVVDEKGRLKGVLSLRDLIVADPRTRVAEIMNPKVVYVRTDTDQEEVARLMADYDFTVLPVVDEEGRLVGIVTVDDVLDVLEAEATEDIHKLGAVDVPDLVYSEAGPVALFLARVRFLVILILTGMVTSSILQGFESVLEAVTALAFYVPVLLGTGGNTGNQSATLIIRALATRDLDLRDFRRVFLKEMGVGLLLGLTLSFLLVGKVYFDGHPLLLPVVGVSLVLIVFFANLVGAMLPFLLRRLGVDPALVSNPLVATLSDVTGLLIYLSVARLLLEAV
B6: W352only single-Trp mutant of MgtE (natural protein, Thermus thermophilus, UniProt Q5SMG8 1-450, looked up)
chain: MEEKLAVSLQEALQEGDTRALREVLEEIHPQDLLALFDELKGEHRYVVLTLLPKAKAAEVLSHLSPEEQAEYLKTLPPFRLREILEELSLDDLADALQAVRKEDPAYFQRLKDLLDPRTRAEVEALARYEEDEAGGLMTPEYVAVREGMTVEEVLRFLRRAAPDAETIYYIYVVDEKGRLKGVLSLRDLIVADPRTRVAEIMNPKVVYVRTDTDQEEVARLMADYDFTVLPVVDEEGRLVGIVTVDDVLDVLEAEATEDIHKLGAVDVPDLVYSEAGPVALFLARVRFLVILILTGMVTSSILQGFESVLEAVTALAFYVPVLLGTGGNTGNQSATLIIRALATRDLDLRDWRRVFLKEMGVGLLLGLTLSFLLVGKVYFDGHPLLLPVVGVSLVLIVFFANLVGAMLPFLLRRLGVDPALVSNPLVATLSDVTGLLIYLSVARLLLEAV

Molecular target: the molecule itself
Assay: SEC

Binding result, binds:
B1
B2
B3
B4
B5
B6
